Experimental data published in patent US20100322957A1.

Target: NLRC4 (mouse) (UniProt Q3UP24)

Row | Substance | IL-1β secretion (ELISA) by LPS-primed BMM one hour after protein transfection
1 | FliC (purified, histidine-tagged) (from UniProt P06179) (ligand) | 800 pg/mL
2 | PrgJ (purified, histidine-tagged) (from UniProt P41785) (ligand) | 800 pg/mL
